Assay [1] concerns the target HLA-A*01:01. Description: IEDB peptide-MHC binding, purified MHC/direct/fluorescence; filed as Kd, often an IC50 or EC50 that approximates it; ≥ and ≤ were set here for values at or beyond the usual limits of such assays.
Assay [2] concerns the target HLA-A*29:02. Described as above. The following applies: source organism: Mammarenavirus machupoense.
The next assay has as its target HLA-A*80:01. The assay is described as above.
In another assay the target is HLA-B*15:42. Description: IEDB peptide-MHC binding, purified MHC/competitive/fluorescence; filed as Kd, often an IC50 or EC50 that approximates it; ≥ and ≤ were set here for values at or beyond the usual limits of such assays.
The target of a further assay is HLA-B*45:06. Described as above.
For a further assay, the target named is HLA-B*83:01. The description is as above.
The next assay deals with HLA-A*26:01. Description: IEDB peptide-MHC binding, purified MHC/competitive/radioactivity; filed as Kd, often an IC50 or EC50 that approximates it; ≥ and ≤ were set here for values at or beyond the usual limits of such assays. The conditions noted are these: source organism: Mammarenavirus lassaense.
The target in assay [3] is HLA-A*29:02. The assay is described as above. The following applies: source organism: Mammarenavirus lassaense.
Assay [4] concerns the target HLA-A*30:01. Described as above. The following applies: source organism: Mammarenavirus lassaense.
The target in the next assay is HLA-A*30:02. The assay is described as above. The following applies: source organism: Mammarenavirus lassaense.
The target in the next assay is HLA-A*32:01. The description is as above.
For another assay, the target named is HLA-A*02:01. Briefly: IEDB peptide-MHC binding, purified MHC/direct/fluorescence; filed as Kd, often an IC50 or EC50 that approximates it; ≥ and ≤ were set here for values at or beyond the usual limits of such assays.
In the next assay the target is HLA-A*02:03. The description is as above.
The target in a further assay is HLA-A*02:06. Described as above.
For another assay, the target named is HLA-A*02:12. The assay is described as above.
For the next assay, the target named is HLA-A*02:19. The description is as above.
Another assay addresses HLA-A*03:01. The description is as above.
For a further assay, the target named is HLA-A*11:01. The description is as above.
The target in the next assay is HLA-A*24:02. The description is as above.
The target in another assay is HLA-A*31:01. Described as above.
A further assay concerns the target HLA-B*07:02. The assay is described as above.
The target of a further assay is HLA-B*15:01. The description is as above.
A further assay has as its target HLA-B*27:05. The assay is described as above.
The next assay deals with HLA-B*40:01. The assay is described as above.
Another assay has as its target HLA-B*44:02. The description is as above.
A further assay deals with HLA-B*46:01. The description is as above. The conditions noted are these: source organism: Brucella melitensis.
In a further assay the target is HLA-B*58:01. The description is as above.
For a further assay, the target named is HLA-A*02:11. The description is as above. The following applies: source organism: Salmonella enterica subsp. arizonae serovar 62:z4,z23:-.
The next assay deals with HLA-A*69:01. The description is as above. The following applies: source organism: Yersinia enterocolitica.
The target in another assay is HLA-B*08:01. Described as above. The following applies: source organism: Salmonella enterica subsp. arizonae serovar 62:z4,z23:-.
The target in the next assay is HLA-C*06:02. Described as above. The following applies: source organism: Yersinia pestis Nepal516.
For a further assay, the target named is HLA-B*15:17. The assay is described as above. The following applies: source organism: dengue virus type 4.
For a further assay, the target named is HLA-B*57:01. Described as above. The following applies: source organism: dengue virus type 4.
A further assay deals with HLA-A*32:07. Description: IEDB peptide-MHC binding, purified MHC/competitive/fluorescence; filed as Kd, often an IC50 or EC50 that approximates it; ≥ and ≤ were set here for values at or beyond the usual limits of such assays. The following applies: source organism: dengue virus type 4.
For the next assay, the target named is HLA-A*32:15. The assay is described as above. The conditions noted are these: source organism: dengue virus type 4.
For the next assay, the target named is HLA-A*68:23. Described as above. The conditions noted are these: source organism: dengue virus type 4.
For another assay, the target named is HLA-C*14:02. The description is as above. The conditions noted are these: source organism: dengue virus type 4.
Assay [5] deals with HLA-A*24:03. The assay is described as above. The conditions noted are these: source organism: Encephalitozoon cuniculi GB-M1.
Assay [6] concerns the target HLA-A*30:01. The assay is described as above.
Assay [7] concerns the target HLA-A*01:01. The assay is described as above. The following applies: source organism: Homo sapiens.
The target in a further assay is HLA-A*23:01. Briefly: IEDB peptide-MHC binding, purified MHC/direct/fluorescence; filed as Kd, often an IC50 or EC50 that approximates it; ≥ and ≤ were set here for values at or beyond the usual limits of such assays. The following applies: source organism: Amur virus.
Assay [8] addresses HLA-A*24:03. The description is as above. The conditions noted are these: source organism: Amur virus.
The mark [9] stands for this setting: source organism: Mammarenavirus lassaense.
Setting [10] is: source organism: Brucella melitensis.
The mark [11] stands for this setting: source organism: Brucella ovis ATCC 25840.
[12] abbreviates: source organism: Yersinia enterocolitica.
Where [13] appears, read: source organism: Salmonella enterica subsp. arizonae serovar 62:z4,z23:-.
Setting [14] is: source organism: dengue virus type 4.

For ISEMLSKEY, the Kd was 0.545 µM with HLA-A*01:01 [1] (source organism: Mammarenavirus cupixiense), 0.179 µM with HLA-A*29:02 [2] and 8 µM with HLA-A*80:01 (source organism: Mammarenavirus machupoense).

With LIDGRTSFY, the Kd with HLA-A*01:01 [1] (setting [9]) was 0.0009 µM; with HLA-A*80:01 (setting [9]) it was 0.0148 µM; in the assay with HLA-B*15:42 (setting [9]), at least 5 µM; with HLA-B*45:06 (setting [9]), at least 5 µM; with HLA-B*83:01 (setting [9]) it was at least 5 µM; with HLA-A*26:01, 14.4 µM. Besides, the dissociation constant (Kd) with HLA-A*29:02 [3] was 1.15 µM; with HLA-A*30:01 [4], at least 51.3 µM; with HLA-A*30:02 it was 1.21 µM; in the assay with HLA-A*32:01 (setting [9]), at least 77.8 µM.

On to CTDPPLLSV, for which the Kd in the assay with HLA-A*01:01 [1] (setting [10]) is 6.98 µM; with HLA-A*02:01 (setting [10]), 0.526 µM; in the assay with HLA-A*02:03 (setting [11]), 1.05 µM; with HLA-A*02:06 (setting [11]) it was 0.023 µM; with HLA-A*02:12 (setting [11]), 0.529 µM; with HLA-A*02:19 (setting [11]) it was at least 20 µM. Also, the Kd in the assay with HLA-A*03:01 (setting [10]), with HLA-A*11:01 (setting [10]), with HLA-A*24:02 (setting [10]), with HLA-A*31:01 (setting [10]), with HLA-B*07:02 (setting [10]) and in the assay with HLA-B*15:01 (setting [10]) was at least 20 µM in each case. Moreover, the dissociation constant Kd with HLA-B*27:05 (setting [10]), with HLA-B*40:01 (setting [10]), with HLA-B*44:02 (setting [10]), with HLA-B*46:01 and in the assay with HLA-B*58:01 (setting [10]) was at least 20 µM in each case.

For the sequence RIYSHIAPY, the dissociation constant (Kd) was at least 20 µM with HLA-A*01:01 [1] (setting [12]); 1.97 µM with HLA-A*02:01 (setting [12]); 0.562 µM with HLA-A*02:03 (setting [13]); 0.221 µM in the assay with HLA-A*02:06 (setting [13]); 0.126 µM with HLA-A*02:11; 0.475 µM in the assay with HLA-A*02:12 (setting [13]). Also, the equilibrium dissociation constant (Kd) is at least 20 µM with HLA-A*02:19 (setting [13]); 0.0312 µM with HLA-A*03:01 (setting [12]); 0.0368 µM with HLA-A*11:01 (setting [12]); 0.0467 µM with HLA-A*31:01 (setting [12]); at least 20 µM with HLA-A*69:01; at least 20 µM with HLA-B*07:02 (setting [12]). Besides, the equilibrium dissociation constant (Kd) in the assay with HLA-B*08:01 is at least 20 µM; with HLA-B*15:01 (setting [12]), 0.109 µM; with HLA-B*27:05 (setting [12]) it was 0.723 µM; with HLA-B*40:01 (setting [12]) it was at least 20 µM; with HLA-B*44:02 (setting [12]), at least 20 µM; with HLA-B*58:01 (setting [12]), 0.058 µM. In the assay with HLA-C*06:02, the Kd is at least 20 µM.

On to STMPLVMAW, for which the Kd with HLA-B*15:17 was at most 0.001 µM; with HLA-B*57:01, 0.0052 µM; with HLA-A*32:07 it was at most 0.001 µM; in the assay with HLA-A*32:15, 0.0227 µM; with HLA-A*68:23 it was 0.0006 µM; with HLA-B*15:42 (setting [14]), at least 5 µM. Further, the Kd with HLA-B*45:06 (setting [14]) is at least 5 µM; with HLA-B*83:01 (setting [14]), 1.14 µM; with HLA-C*14:02, 0.0106 µM; in the assay with HLA-A*32:01 (source organism: Dengue virus 4 Philippines/H241/1956), 0.00169 µM.

RVLENTHIF: the values for the Kd with HLA-A*24:03 [5] and with HLA-A*30:01 [6] (source organism: Encephalitozoon cuniculi GB-M1) were 0.0029 µM and 0.222 µM, respectively.

CSDSDGLAP: the Kd with HLA-A*80:01 (source organism: Homo sapiens), with HLA-A*01:01 [7] and with HLA-A*30:01 [6] (source organism: Homo sapiens) was at least 20 µM each time.

Consider ESPSSIWVF, for which the dissociation constant (Kd) in the assay with HLA-A*23:01 came to 0.145 µM; in the assay with HLA-A*24:02 (source organism: Amur virus) it was 0.0058 µM; with HLA-A*24:03 [8], 1.22 µM; in the assay with HLA-A*30:01 [6] (source organism: Hantaan virus 76-118), 2.33 µM.

Values taken from the Immune Epitope Database (IEDB).
